Reference: publication PMC11957774 (The Journal of Biological Chemistry, 2025)

T1: MLL4 PHD2/3 fingers (aa 227-324), 15N-labeled (human, UniProt O14686 227-324, uniformly 15N-labeled)
T1 sequence (looked up): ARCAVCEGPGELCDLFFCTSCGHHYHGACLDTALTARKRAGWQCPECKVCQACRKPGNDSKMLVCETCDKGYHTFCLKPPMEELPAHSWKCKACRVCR


These binders were tested against T1, MLL4 PHD2/3 fingers (aa 227-324), … (assay: NMR titration).

Binding result, binds:
GWTGARTLADIKARALQVRGA (peptide, UniProt Q8IXJ9 607-627, looked up) [ASXL1 peptide (residues 607-627 of ASXL1), wild type]
GWTGTRTLADIKARALQVRGA (peptide, UniProt Q8IXJ9 607-627, looked up) [ASXL1 peptide (residues 607-627 of ASXL1) A611T]
NRTGAITLADIKAKAQLVKAQ (peptide, UniProt Q76L83 650-670, looked up) [ASXL2 peptide (residues 650-670 of ASXL2) R655I]
